# B1: Circadian clock oscillator protein KaiC (Thermosynechococcus elongatus (strain BP-1)), Q79V60 (parent)
# chain: MTNLPEHQSSPTEQSSAEVKKIPTMIEGFDDISHGGLPQGRTTLVSGTSGTGKTLFAVQFLYNGITIFNEPGIFVTFEESPQDIIKNALSFGWNLQSLIDQGKLFILDASPDPDGQEVAGDFDLSALIERIQYAIRKYKATRVSIDSVTAVFQQYDAASVVRREIFRLAFRLKQLGVTTIMTTERVDEYGPVARFGVEEFVSDNVVILRNVLEGERRRRTVEILKLRGTTHMKGEYPFTINNGINIFPLGAMRLTQRSSNVRVSSGVKTLDEMCGGGFFKDSIILATGATGTGKTLLVSKFLETGCQQGERALLFAYEESRAQLSRNASSWGIDFEELERRGLLRIICAYPESAGLEDHLQIIKSEIADFKPSRVAIDSLSALARGVSNNAFRQFVIGVTGFAKQEEITGFFTNTTDQFMGSNSITESHISTITDTILLLQYVEIRGEMSRAINVFKMRGSWHDKGIREYVITEKGAEIRDSFRNFEGIISGTPTRISVDEKTELARIAKGMQDLESE
# partner: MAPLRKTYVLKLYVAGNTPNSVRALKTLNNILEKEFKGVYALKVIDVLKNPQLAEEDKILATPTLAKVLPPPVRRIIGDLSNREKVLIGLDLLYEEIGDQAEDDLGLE
# B2: Circadian clock oscillator protein KaiC (Thermosynechococcus elongatus (strain BP-1)), Q79V60 (parent)
# chain: B1 chain
# partner: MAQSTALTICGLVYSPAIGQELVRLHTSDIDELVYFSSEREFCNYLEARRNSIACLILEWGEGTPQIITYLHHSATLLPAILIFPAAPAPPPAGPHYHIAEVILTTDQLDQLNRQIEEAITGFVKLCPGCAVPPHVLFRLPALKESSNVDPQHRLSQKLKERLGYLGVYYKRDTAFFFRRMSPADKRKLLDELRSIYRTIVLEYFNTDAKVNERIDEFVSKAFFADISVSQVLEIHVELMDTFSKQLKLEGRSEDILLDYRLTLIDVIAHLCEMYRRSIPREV
# Variants of: B1
# Conditions: with kaib_thevb kaiB
row,effect of a mutation on the interaction,Variant
1,disrupting interaction,MTNLPEHQSSPTEQSSAEVKKIPTMIEGFDDISHGGLPQGRTTLVSGTSGTGKTLFAVQFLYNGITIFNEPGIFVTFEESPQDIIKNALSFGWNLQSLIDQGKLFILDASPDPDGQEVAGDFDLSALIERIQYAIRKYKATRVSIDSVTAVFQQYDAASVVRREIFRLAFRLKQLGVTTIMTTERVDEYGPVARFGVEEFVSDNVVILRNVLEGERRRRTVEILKLRGTTHMKGEYPFTINNGINIFPLGAMRLTQRSSNVRVSSGVKTLDEMCGGGFFKDSIILATGATGTGKTLLVSKFLETGCQQGERALLFAYEESRAQLSRNASSWGIDFEELERRGLLRIICAYPESAGLEDHLQIIKSEIADFKPSRVAIDSLSALARGVSNNAFRQFVIGVTGFAKQEEITGFFTNTTDQFMGSNSITESHISAITDTILLLQYVEIRGEMSRAINVFKMRGSWHDKGIREYVITEKGAEIRDSFRNFEGIISGTPTRISVDEKTELARIAKGMQDLESE [T432A]

# Variants of: B2
# Conditions: with kaia_thevb kaiA
row,effect of a mutation on the interaction,Variant
1,decreasing interaction,MTNLPEHQSSPTEQSSAEVKKIPTMIEGFDDISHGGLPQGRTTLVSGTSGTGKTLFAVQFLYNGITIFNEPGIFVTFEESPQDIIKNALSFGWNLQSLIDQGKLFILDASPDPDGQEVAGDFDLSALIERIQYAIRKYKATRVSIDSVTAVFQQYDAASVVRREIFRLAFRLKQLGVTTIMTTERVDEYGPVARFGVEEFVSDNVVILRNVLEGERRRRTVEILKLRGTTHMKGEYPFTINNGINIFPLGAMRLTQRSSNVRVSSGVKTLDEMCGGGFFKDSIILATGATGTGKTLLVSKFLETGCQQGERALLFAYEESRAQLSRNASSWGIDFEELERRGLLRIICAYPESAGLEDHLQIIKSEIADFKPSRVAIDSLSALARGVSNNAFRQFVIGVTGFAKQEEITGFFTNTTDQFMGSNSITESHISAITDTILLLQYVEIRGEMSRAINVFKMRGSWHDKGIREYVITEKGAEIRDSFRNFEGIISGTPTRISVDEKTELARIAKGMQDLESE [T432A]

# — IntAct's records for PubMed 17717528
